Assay results published in patent US20120178701A1 (PALATIN TECHNOLOGIES, published 2012).
Numbered stars: 1 amine (or outer) side, 2 acyl side, 3 side chain; on linkers, the order of the positions; unused ones are H or OH. Bridge positions count the residues as written; N and C are the ends. Square brackets hold non-standard residues; d marks the D form. * marks the point of attachment. Hyp(Bzl) = O-benzyl-hydroxyproline, O=C([C@@H]1C[C@@H](OCc2ccccc2)CN1[*:1])[*:2]; Pro(4R-Bn) = O=C(O)[C@@H]1C[C@@H](Cc2ccccc2)CN1; Orn = NCCC[C@H](N)C(=O)O; NHcPr = C1CC1N*

B1: Ac-Arg-cyclo(Glu-Lys-D-Phe-Arg-Trp-Orn)-OH (peptide)
peptide: REKFRWX
HELM: PEPTIDE1{[ac].R.E.K.[dF].R.W.[Orn]}$PEPTIDE1,PEPTIDE1,3:R3-8:R3$$$V2.0
SMILES: CC(=O)N[C@@H](CCCNC(=N)N)C(=O)N[C@H]1CCC(=O)NCCC[C@@H](C(=O)O)NC(=O)[C@H](Cc2c[nH]c3ccccc23)NC(=O)[C@H](CCCNC(=N)N)NC(=O)[C@@H](Cc2ccccc2)NC(=O)[C@H](CCCCN)NC1=O
notes: also called peptide No. 89
B2: Ac-Arg-cyclo(Orn-Ala-D-Phe-Arg-Trp-Glu)-NH2 (peptide)
peptide: RXAFRWE
HELM: PEPTIDE1{[ac].R.[Orn].A.[dF].R.W.E.[am]}$PEPTIDE1,PEPTIDE1,3:R3-8:R3$$$V2.0
SMILES: CC(=O)N[C@@H](CCCNC(=N)N)C(=O)N[C@H]1CCCNC(=O)CC[C@@H](C(N)=O)NC(=O)[C@H](Cc2c[nH]c3ccccc23)NC(=O)[C@H](CCCNC(=N)N)NC(=O)[C@@H](Cc2ccccc2)NC(=O)[C@H](C)NC1=O
notes: also called peptide No. 120
B3: Ac-Arg-cyclo(Asp-Tyr-D-Phe-Arg-Trp-Lys)-NH2 (peptide)
peptide: RDYFRWK
HELM: PEPTIDE1{[ac].R.D.Y.[dF].R.W.K.[am]}$PEPTIDE1,PEPTIDE1,3:R3-8:R3$$$V2.0
SMILES: CC(=O)N[C@@H](CCCNC(=N)N)C(=O)N[C@H]1CC(=O)NCCCC[C@@H](C(N)=O)NC(=O)[C@H](Cc2c[nH]c3ccccc23)NC(=O)[C@H](CCCNC(=N)N)NC(=O)[C@@H](Cc2ccccc2)NC(=O)[C@H](Cc2ccc(O)cc2)NC1=O
notes: also called peptide No. 11
B4: Ac-Arg-cyclo(Asp-Leu-D-Phe-Arg-Trp-Lys)-NH2 (peptide)
peptide: RDLFRWK
HELM: PEPTIDE1{[ac].R.D.L.[dF].R.W.K.[am]}$PEPTIDE1,PEPTIDE1,3:R3-8:R3$$$V2.0
SMILES: CC(=O)N[C@@H](CCCNC(=N)N)C(=O)N[C@H]1CC(=O)NCCCC[C@@H](C(N)=O)NC(=O)[C@H](Cc2c[nH]c3ccccc23)NC(=O)[C@H](CCCNC(=N)N)NC(=O)[C@@H](Cc2ccccc2)NC(=O)[C@H](CC(C)C)NC1=O
notes: also called peptide No. 12
B5: Ac-Arg-cyclo(Asp-Asn-D-Phe-Arg-Trp-Lys)-NH2 (peptide)
peptide: RDNFRWK
HELM: PEPTIDE1{[ac].R.D.N.[dF].R.W.K.[am]}$PEPTIDE1,PEPTIDE1,3:R3-8:R3$$$V2.0
SMILES: CC(=O)N[C@@H](CCCNC(=N)N)C(=O)N[C@H]1CC(=O)NCCCC[C@@H](C(N)=O)NC(=O)[C@H](Cc2c[nH]c3ccccc23)NC(=O)[C@H](CCCNC(=N)N)NC(=O)[C@@H](Cc2ccccc2)NC(=O)[C@H](CC(N)=O)NC1=O
notes: also called peptide No. 29
B6: Ac-Arg-cyclo(Asp-Lys-D-Phe-Lys-Trp-Lys)-NH2 (peptide)
peptide: RDKFKWK
HELM: PEPTIDE1{[ac].R.D.K.[dF].K.W.K.[am]}$PEPTIDE1,PEPTIDE1,3:R3-8:R3$$$V2.0
SMILES: CC(=O)N[C@@H](CCCNC(=N)N)C(=O)N[C@H]1CC(=O)NCCCC[C@@H](C(N)=O)NC(=O)[C@H](Cc2c[nH]c3ccccc23)NC(=O)[C@H](CCCCN)NC(=O)[C@@H](Cc2ccccc2)NC(=O)[C@H](CCCCN)NC1=O
notes: also called peptide No. 7
B7: Ac-Arg-cyclo(Asp-Gln-D-Phe-Arg-Trp-Lys)-NH2 (peptide)
peptide: Ac-RDQ[dF]RWK-NH2
modifications: lactam 2-7
notes: any difference is only in the drawings; also called peptide No. 78
B8: Ac-Arg-cyclo(Asp-Met-D-Phe-Arg-Trp-Lys)-NH2 (peptide)
peptide: RDMFRWK
HELM: PEPTIDE1{[ac].R.D.M.[dF].R.W.K.[am]}$PEPTIDE1,PEPTIDE1,3:R3-8:R3$$$V2.0
SMILES: CSCC[C@@H]1NC(=O)[C@@H](NC(=O)[C@H](CCCNC(=N)N)NC(C)=O)CC(=O)NCCCC[C@@H](C(N)=O)NC(=O)[C@H](Cc2c[nH]c3ccccc23)NC(=O)[C@H](CCCNC(=N)N)NC(=O)[C@@H](Cc2ccccc2)NC1=O
notes: also called peptide No. 38
B9: Ac-Arg-cyclo(Asp-Ile-D-Phe-Arg-Trp-Lys)-NH2 (peptide)
peptide: RDIFRWK
HELM: PEPTIDE1{[ac].R.D.I.[dF].R.W.K.[am]}$PEPTIDE1,PEPTIDE1,3:R3-8:R3$$$V2.0
SMILES: CC[C@H](C)[C@@H]1NC(=O)[C@@H](NC(=O)[C@H](CCCNC(=N)N)NC(C)=O)CC(=O)NCCCC[C@@H](C(N)=O)NC(=O)[C@H](Cc2c[nH]c3ccccc23)NC(=O)[C@H](CCCNC(=N)N)NC(=O)[C@@H](Cc2ccccc2)NC1=O
notes: also called peptide No. 34
B10: Ac-Arg-cyclo(Asp-Ala-D-Phe-Lys-Trp-Lys)-NH2 (peptide)
peptide: RDAFKWK
HELM: PEPTIDE1{[ac].R.D.A.[dF].K.W.K.[am]}$PEPTIDE1,PEPTIDE1,3:R3-8:R3$$$V2.0
SMILES: CC(=O)N[C@@H](CCCNC(=N)N)C(=O)N[C@H]1CC(=O)NCCCC[C@@H](C(N)=O)NC(=O)[C@H](Cc2c[nH]c3ccccc23)NC(=O)[C@H](CCCCN)NC(=O)[C@@H](Cc2ccccc2)NC(=O)[C@H](C)NC1=O
notes: also called peptide No. 8
B11: Ac-Arg-cyclo(Asp-Ala-D-Phe-Arg-Trp-Lys)-OH (peptide)
peptide: RDAFRWK
HELM: PEPTIDE1{[ac].R.D.A.[dF].R.W.K}$PEPTIDE1,PEPTIDE1,3:R3-8:R3$$$V2.0
SMILES: CC(=O)N[C@@H](CCCNC(=N)N)C(=O)N[C@H]1CC(=O)NCCCC[C@@H](C(=O)O)NC(=O)[C@H](Cc2c[nH]c3ccccc23)NC(=O)[C@H](CCCNC(=N)N)NC(=O)[C@@H](Cc2ccccc2)NC(=O)[C@H](C)NC1=O
notes: also called peptide No. 52
B12: Ac-Arg-cyclo(Asp-His-D-(alpha-Me)Phe-Arg-Trp-Lys)-NH2 (peptide)
peptide: RDHFRWK
HELM: PEPTIDE1{[ac].R.D.H.[C[C@](Cc1ccccc1)(N[*:1])C(=O)[*:2]].R.W.K.[am]}$PEPTIDE1,PEPTIDE1,3:R3-8:R3$$$V2.0
SMILES: CC(=O)N[C@@H](CCCNC(=N)N)C(=O)N[C@H]1CC(=O)NCCCC[C@@H](C(N)=O)NC(=O)[C@H](Cc2c[nH]c3ccccc23)NC(=O)[C@H](CCCNC(=N)N)NC(=O)[C@@](C)(Cc2ccccc2)NC(=O)[C@H](Cc2c[nH]cn2)NC1=O
notes: also called peptide No. 60
B13: Ac-Arg-cyclo(Asp-Trp-D-Phe-Arg-Trp-Lys)-NH2 (peptide)
peptide: RDWFRWK
HELM: PEPTIDE1{[ac].R.D.W.[dF].R.W.K.[am]}$PEPTIDE1,PEPTIDE1,3:R3-8:R3$$$V2.0
SMILES: CC(=O)N[C@@H](CCCNC(=N)N)C(=O)N[C@H]1CC(=O)NCCCC[C@@H](C(N)=O)NC(=O)[C@H](Cc2c[nH]c3ccccc23)NC(=O)[C@H](CCCNC(=N)N)NC(=O)[C@@H](Cc2ccccc2)NC(=O)[C@H](Cc2c[nH]c3ccccc23)NC1=O
notes: also called peptide No. 36
B14: Ac-Arg-cyclo(Asp-His-D-Phe-Lys-Trp-Lys)-NH2 (peptide)
peptide: RDHFKWK
HELM: PEPTIDE1{[ac].R.D.H.[dF].K.W.K.[am]}$PEPTIDE1,PEPTIDE1,3:R3-8:R3$$$V2.0
SMILES: CC(=O)N[C@@H](CCCNC(=N)N)C(=O)N[C@H]1CC(=O)NCCCC[C@@H](C(N)=O)NC(=O)[C@H](Cc2c[nH]c3ccccc23)NC(=O)[C@H](CCCCN)NC(=O)[C@@H](Cc2ccccc2)NC(=O)[C@H](Cc2c[nH]cn2)NC1=O
notes: also called peptide No. 6
B15: Ac-Lys-cyclo(Asp-His-D-Phe-Arg-Trp-Lys)-NH2 (peptide)
peptide: KDHFRWK
HELM: PEPTIDE1{[ac].K.D.H.[dF].R.W.K.[am]}$PEPTIDE1,PEPTIDE1,3:R3-8:R3$$$V2.0
SMILES: CC(=O)N[C@@H](CCCCN)C(=O)N[C@H]1CC(=O)NCCCC[C@@H](C(N)=O)NC(=O)[C@H](Cc2c[nH]c3ccccc23)NC(=O)[C@H](CCCNC(=N)N)NC(=O)[C@@H](Cc2ccccc2)NC(=O)[C@H](Cc2c[nH]cn2)NC1=O
notes: also called peptide No. 135

Biological target: T1, human recombinant melanocortin-4 receptor (human, UniProt P32245 1-332)
T1 construct: whole, on cells; cAMP assays used the whole cells; also called hMC4-R; MC4-R
T1 sequence (P32245 whole entry): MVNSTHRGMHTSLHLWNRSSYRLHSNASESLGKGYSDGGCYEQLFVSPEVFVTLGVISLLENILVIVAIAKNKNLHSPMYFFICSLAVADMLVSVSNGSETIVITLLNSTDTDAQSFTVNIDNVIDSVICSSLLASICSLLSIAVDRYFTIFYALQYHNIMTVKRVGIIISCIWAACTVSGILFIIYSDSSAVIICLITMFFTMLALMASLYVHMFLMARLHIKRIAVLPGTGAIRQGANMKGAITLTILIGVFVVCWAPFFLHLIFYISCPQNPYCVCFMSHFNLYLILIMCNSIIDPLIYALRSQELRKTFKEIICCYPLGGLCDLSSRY
Assay: competitive inhibition of Eu-NDP-α-MSH (TRF), hMC4-R HEK-293 membranes
Description: After incubation for 90 minutes at 37° C., the reaction was stopped by filtration over AcroWell 96-well filter plates (Pall Life Sciences). The filter plates were washed 4 times with 200 μL of ice-cold phosphate-buffered saline. DELFIA Enhancement solution (PerkinElmer Life Sciences) was added to each well. The plates were incubated on a shaker for 15 minutes and read at 340 nm excitation and 615 nm emission wavelengths. Each assay was conducted in duplicate and mean values were utilized. Ki values were determined by curve-fitting with Graph-Pad Prism® software using a one-site fixed-slope competition binding model.
9.1 Peptides of the following structures were synthesized by the general methods described above, and averaged MC4-R Ki values for peptides were determined as indicated. […] Ki values marked “ND” were not determined.

Row | Binder | Ki [nM]
1 | Ac-RD[Pro(4R-Bn)][dF]RWK-NH2 (lactam 2-7, also called peptide No. 18) [Ac-Arg-cyclo(Asp-Pro(4R-Bzl)-D-Phe-Arg-Trp-Lys)-NH2] | 3
2 | Ac-[dR][Orn]H[dF]RWE-NH2 (lactam 2-7, also called peptide No. 98) [Ac-D-Arg-cyclo(Orn-His-D-Phe-Arg-Trp-Glu)-NH2] | 4
3 | Ac-REH[dF]RW[Orn]-NH2 (lactam 2-7, also called peptide No. 64) [Ac-Arg-cyclo(Glu-His-D-Phe-Arg-Trp-Orn)-NH2] | 1
4 | B1 | 113
5 | Ac-RKH[dF]RWD-NH2 (lactam 2-7, also called peptide No. 96) [Ac-Arg-cyclo(Lys-His-D-Phe-Arg-Trp-Asp)-NH2] | 1
6 | Ac-R[Orn]H[dF]RWE-OH (lactam 2-7, also called peptide No. 84) [Ac-Arg-cyclo(Orn-His-D-Phe-Arg-Trp-Glu)-OH] | 12
7 | Ac-[dR]EH[dF]RW[Orn]-OH (lactam 2-7, also called peptide No. 85) [Ac-D-Arg-cyclo(Glu-His-D-Phe-Arg-Trp-Orn)-OH] | 40
8 | B2 | 19
9 | Ac-[dK][Orn]H[dF]RWE-NH2 (lactam 2-7) [Ac-D-Lys-cyclo(Orn-His-D-Phe-Arg-Trp-Glu)-NH2] | 8
10 | Ac-K[Orn]H[dF]RWE-NH2 (lactam 2-7, also called peptide No. 132) [Ac-Lys-cyclo(Orn-His-D-Phe-Arg-Trp-Glu)-NH2] | 3
11 | Ac-RE[Orn][dF]RW[Orn]-NH2 (lactam 2-7, also called peptide No. 104) [Ac-Arg-cyclo(Glu-Orn-D-Phe-Arg-Trp-Orn)-NH2] | 9
12 | Ac-RD[Hyp(Bzl)][dF]RWK-NH2 (lactam 2-7, also called peptide No. 15) [Ac-Arg-cyclo(Asp-Hyp(Bzl)-D-Phe-Arg-Trp-Lys)-NH2] | 0.7
13 | B3 | 43
14 | B4 | 33
15 | B5 | 32
16 | Ac-RDQ[dF]RWK-NHcPr (lactam 2-7) [Ac-Arg-cyclo(Asp-Gln-D-Phe-Arg-Trp-Lys)-NH-cyclopropyl] | 64
17 | Ac-RDA[dF]RWK-NH2 (lactam 2-7, also called peptide No. 9) [Ac-Arg-cyclo(Asp-Ala-D-Phe-Arg-Trp-Lys)-NH2] | 19
18 | B6 | 2960
19 | B7 | 86
20 | B8 | 35
21 | B9 | 19
22 | B10 | 3020
23 | B11 | 144
24 | B12 | 47
25 | B13 | 37
26 | B14 | 533
27 | B15 | 9
28 | Ac-RDT[dF]RWK-NH2 (lactam 2-7, also called peptide No. 35) [Ac-Arg-cyclo(Asp-Thr-D-Phe-Arg-Trp-Lys)-NH2] | 140
29 | Ac-[dR]DA[dF]RWK-NH2 (lactam 2-7, also called peptide No. 70) [Ac-D-Arg-cyclo(Asp-Ala-D-Phe-Arg-Trp-Lys)-NH2] | 46
30 | Ac-[dR]D[Pro(4R-Bn)][dF]RWK-NH2 (lactam 2-7, also called peptide No. 72) [Ac-D-Arg-cyclo(Asp-Pro(4R-Bzl)-D-Phe-Arg-Trp-Lys)-NH2] | 2
